Reference: PMC11574045, “A cofactor-induced repressive type of transcription factor condensation can be induced by synthetic peptides to suppress tumorigenesis” (The EMBO Journal, 2024)

System: HEK293FT cells transfected with TF library
Assay: Screening of TF condensates based on fluorescent puncta
Format: cell-based
Conditions: Figure 1B numerical data; TF library screen, one value per transcriptional factor
In short: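 TF plasmids (final 1.6 μg/ml) reverse-transfected with PEI (4.8 μg/ml) into HEK293FT cells; after 60 h, cells cultured ±glucose for 12 h, fixed in 4% PFA and immunostained for Flag or GAL4 tags with Alexa 488 secondaries. Puncta scored by automated imaging of 50 random fields per well.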

Row | Molecule | Z score of condensed fraction
1 | PRMT2 (protein, UniProt P55345 1-433, looked up) Protein arginine …: MATSGDCPRSESQGEEPAECSEAGLLQEGVQPEEFVAIADYAATDETQLSFLRGEKILILRQTTADWWWGERAGCCGYIPANHVGKHVDEYDPEDTWQDEEYFGSYGTLKLHLEMLADQPRTTKYHSVILQNKESLTDKVILDVGCGTGIISLFCAHYARPRAVYAVEASEMAQHTGQLVLQNGFADIITVYQQKVEDVVLPEKVDVLVSEWMGTCLLFEFMIESILYARDAWLKEDGVIWPTMAALHLVPCSADKDYRSKVLFWDNAYEFNLSALKSLAVKEFFSKPKYNHILKPEDCLSEPCTILQLDMRTVQISDLETLRGELRFDIRKAGTLHGFTAWFSVHFQSLQEGQPPQVLSTGPFHPTTHWKQTLFMMDDPVPVHTGDVVTGSVVLQRNPVWRRHMSVALSWAVTSRQDPTSQKVGEKVFPIWR | 0.936
2 | PROX1 (protein, UniProt P48437 1-737, looked up) Prospero homeobox protein 1: MPDHDSTALLSRQTKRRRVDIGVKRTVGTASAFFAKARATFFSAMNPQGSEQDVEYSVVQHADGEKSNVLRKLLKRANSYEDAMMPFPGATIISQLLKNNMNKNGGTEPSFQASGLSSTGSEVHQEDICSNSSRDSPPECLSPFGRPTMSQFDVDRLCDEHLRAKRARVENIIRGMSHSPSVALRGNENEREMAPQSVSPRESYRENKRKQKLPQQQQQSFQQLVSARKEQKREERRQLKQQLEDMQKQLRQLQEKFYQVYDSTDSENDEDGDLSEDSMRSEILDARAQDSVGRSDNEMCELDPGQFIDRARALIREQEMAENKPKREGSNKERDHGPNSLQPEGKHLAETLKQELNTAMSQVVDTVVKVFSAKPSRQVPQVFPPLQIPQARFAVNGENHNFHTANQRLQCFGDVIIPNPLDTFGSVQMPSSTDQTEALPLVVRKNSSEQSASGPATGGHHQPLHQSPLSATAGFTTPSFRHPFPLPLMAYPFQSPLGAPSGSFSGKDRASPESLDLTRDTTSLRTKMSSHHLSHHPCSPAHPPSTAEGLSLSLIKSECGDLQDMSDISPYSGSAMQEGLSPNHLKKAKLMFFYTRYPSSNMLKTYFSDVKFNRCITSQLIKWFSNFREFYYIQMEKYARQAINDGVTSTEELSITRDCELYRALNMHYNKANDFEVPERFLEVAQITLREFFNAIIAGKDVDPSWKKAIYKVICKLDSEVPEIFKSPNCLQELLHE | 0.7937
3 | PRDM16 (protein, UniProt Q9HAZ2 1-1276, looked up) Histone-lysine …: MRSKARARKLAKSDGDVVNNMYEPNRDLLASHSAEDEAEDSAMSPIPVGPPSPFPTSEDFTPKEGSPYEAPVYIPEDIPIPADFELRESSIPGAGLGVWAKRKMEAGERLGPCVVVPRAAAKETDFGWEQILTDVEVSPQEGCITKISEDLGSEKFCVDANQAGAGSWLKYIRVACSCDDQNLTMCQISEQIYYKVIKDIEPGEELLVHVKEGVYPLGTVPPGLDEEPTFRCDECDELFQSKLDLRRHKKYTCGSVGAALYEGLAEELKPEGLGGGSGQAHECKDCERMFPNKYSLEQHMVIHTEEREYKCDQCPKAFNWKSNLIRHQMSHDSGKRFECENCVKVFTDPSNLQRHIRSQHVGARAHACPDCGKTFATSSGLKQHKHIHSTVKPFICEVCHKSYTQFSNLCRHKRMHADCRTQIKCKDCGQMFSTTSSLNKHRRFCEGKNHYTPGGIFAPGLPLTPSPMMDKAKPSPSLNHASLGFNEYFPSRPHPGSLPFSTAPPTFPALTPGFPGIFPPSLYPRPPLLPPTSLLKSPLNHTQDAKLPSPLGNPALPLVSAVSNSSQGTTAAAGPEEKFESRLEDSCVEKLKTRSSDMSDGSDFEDVNTTTGTDLDTTTGTGSDLDSDVDSDPDKDKGKGKSAEGQPKFGGGLAPPGAPNSVAEVPVFYSQHSFFPPPDEQLLTATGAAGDSIKAIASIAEKYFGPGFMGMQEKKLGSLPYHSAFPFQFLPNFPHSLYPFTDRALAHNLLVKAEPKSPRDALKVGGPSAECPFDLTTKPKDVKPILPMPKGPSAPASGEEQPLDLSIGSRARASQNGGGREPRKNHVYGERKLGAGEGLPQVCPARMPQQPPLHYAKPSPFFMDPIYSRVEKRKVTDPVGALKEKYLRPSPLLFHPQMSAIETMTEKLESFAAMKADSGSSLQPLPHHPFNFRSPPPTLSDPILRKGKERYTCRYCGKIFPRSANLTRHLRTHTGEQPYRCKYCDRSFSISSNLQRHVRNIHNKEKPFKCHLCNRCFGQQTNLDRHLKKHEHENAPVSQHPGVLTNHLGTSASSPTSESDNHALLDEKEDSYFSEIRNFIANSEMNQASTRTEKRADMQIVDGSAQCPGLASEKQEDVEEEDDDDLEEDDEDSLAGKSQDDTVSPAPEPQAAYEDEEDEEPAASLAVGFDHTRRCAEDHEGGLLALEPMPTFGKGLDLRRAAEEAFEVKDVLNSTLDSEALKHTLCRQAKNQAYAMMLSLSEDTPLHTPSQGSLDAWLKVTGATSESGAFHPINHL | -0.4468
4 | PRDM8 (protein, UniProt Q9NQV8 1-689, looked up) PR domain zinc finger protein …: MEDTGIQRGIWDGDAKAVQQCLTDIFTSVYTTCDIPENAIFGPCVLSHTSLYDSIAFIALKSTDKRTVPYIFRVDTSAANGSSEGLMWLRLVQSARDKEEQNLEAYIKNGQLFYRSLRRIAKDEELLVWYGKELTELLLLCPSRSHNKMNGSSPYTCLECSQRFQFEFPYVAHLRFRCPKRLHSADISPQDEQGGGVGTKDHGGGGGGGKDQQQQQQEAPLGPGPKFCKAGPLHHYPSPSPESSNPSAAAGGSSAKPSTDFHNLARELENSRGGSSCSPAQSLSSGSGSGGGGGHQEAELSPDGIATGGGKGKRKFPEEAAEGGGGAGLVGGRGRFVERPLPASKEDLVCTPQQYRASGSYFGLEENGRLFAPPSPETGEAKRSAFVEVKKAARAASLQEEGTADGAGVASEDQDAGGGGGSSTPAAASPVGAEKLLAPRPGGPLPSRLEGGSPARGSAFTSVPQLGSAGSTSGGGGTGAGAAGGAGGGQGAASDERKSAFSQPARSFSQLSPLVLGQKLGALEPCHPADGVGPTRLYPAAADPLAVKLQGAADLNGGCGSLPSGGGGLPKQSPFLYATAFWPKSSAAAAAAAAAAAAGPLQLQLPSALTLLPPSFTSLCLPAQNWCAKCNASFRMTSDLVYHMRSHHKKEYAMEPLVKRRREEKLKCPICNESFRERHHLSRHMTSHN | -0.8362
5 | PRDM12 (protein, UniProt Q9H4Q4 1-367, looked up) PR domain zinc finger protein …: MMGSVLPAEALVLKTGLKAPGLALAEVITSDILHSFLYGRWRNVLGEQLFEDKSHHASPKTAFTAEVLAQSFSGEVQKLSSLVLPAEVIIAQSSIPGEGLGIFSKTWIKAGTEMGPFTGRVIAPEHVDICKNNNLMWEVFNEDGTVRYFIDASQEDHRSWMTYIKCARNEQEQNLEVVQIGTSIFYKAIEMIPPDQELLVWYGNSHNTFLGIPGVPGLEEDQKKNKHEDFHPADSAAGPAGRMRCVICHRGFNSRSNLRSHMRIHTLDKPFVCRFCNRRFSQSSTLRNHVRLHTGERPYKCQVCQSAYSQLAGLRAHQKSARHRPPSTALQAHSPALPAPHAHAPALAAAAAAAAAAAAHHLPAMVL | -1.027
6 | PRKRA (protein, UniProt O75569 1-313, looked up) Interferon-inducible …: MSQSRHRAEAPPLEREDSGTFSLGKMITAKPGKTPIQVLHEYGMKTKNIPVYECERSDVQIHVPTFTFRVTVGDITCTGEGTSKKLAKHRAAEAAINILKANASICFAVPDPLMPDPSKQPKNQLNPIGSLQELAIHHGWRLPEYTLSQEGGPAHKREYTTICRLESFMETGKGASKKQAKRNAAEKFLAKFSNISPENHISLTNVVGHSLGCTWHSLRNSPGEKINLLKRSLLSIPNTDYIQLLSEIAKEQGFNITYLDIDELSANGQYQCLAELSTSPITVCHGSGISCGNAQSDAAHNALQYLKIIAERK | 0.8928
7 | BANP (protein, UniProt Q8N9N5 1-519, looked up) Protein BANP: MMSEHDLADVVQIAVEDLSPDHPVVLENHVVTDEDEPALKRQRLEINCQDPSIKTICLRLDSIEAKLQALEATCKSLEEKLDLVTNKQHSPIQVPMVAGSPLGATQTCNKVRCVVPQTTVILNNDRQNAIVAKMEDPLSNRAPDSLENVISNAVPGRRQNTIVVKVPGQEDSHHEDGESGSEASDSVSSCGQAGSQSIGSNVTLITLNSEEDYPNGTWLGDENNPEMRVRCAIIPSDMLHISTNCRTAEKMALTLLDYLFHREVQAVSNLSGQGKHGKKQLDPLTIYGIRCHLFYKFGITESDWYRIKQSIDSKCRTAWRRKQRGQSLAVKSFSRRTPNSSSYCPSEPMMSTPPPASELPQPQPQPQALHYALANAQQVQIHQIGEDGQVQVGHLHIAQVPQGEQVQITQDSEGNLQIHHVGQDGQLLEATRIPCLLAPSVFKASSGQVLQGAQLIAVASSDPAAAGVDGSPLQGSDIQVQYVQLAPVSDHTAGAQTAEALQPTLQPEMQLEHGAIQIQ | 1.258
8 | PRDM10 (protein, UniProt Q9NQV6 1-1147, looked up) PR domain zinc finger protein …: MDSKDESSHVWPTSAEHEQNAAQVHFVPDTGTVAQIVYTDDQVRPPQQVVYTADGASYTSVDGPEHTLVYIHPVEAAQTLFTDPGQVAYVQQDATAQQASLPVHNQVLPSIESVDGSDPLATLQTPLGRLEAKEEEDEDEDEDTEEDEEEDGEDTDLDDWEPDPPRPFDPHDLWCEECNNAHASVCPKHGPLHPIPNRPVLTRARASLPLVLYIDRFLGGVFSKRRIPKRTQFGPVEGPLVRGSELKDCYIHLKVSLDKGDRKERDLHEDLWFELSDETLCNWMMFVRPAQNHLEQNLVAYQYGHHVYYTTIKNVEPKQELKVWYAASYAEFVNQKIHDISEEERKVLREQEKNWPCYECNRRFISSEQLQQHLNSHDEKLDVFSRTRGRGRGRGKRRFGPGRRPGRPPKFIRLEITSENGEKSDDGTQDLLHFPTKEQFDEAEPATLNGLDQPEQTTIPIPQLPQETQSSLEHEPETHTLHLQPQHEESVVPTQSTLTADDMRRAKRIRLELQNAALQHLFIRKSFRPFKCLQCGKAFREKDKLDQHLRFHGREGNCPLTCDLCNKGFISSTSLESHMKLHSDQKTYSCIFCPESFDRLDLLKDHVAIHINDGYFTCPTCKKRFPDFIQVKKHVRSFHSEKIYQCTECDKAFCRPDKLRLHMLRHSDRKDFLCSTCGKQFKRKDKLREHMQRMHNPEREAKKADRISRSKTFKPRITSTDYDSFTFKCRLCMMGFRRRGMLVNHLSKRHPDMKIEEVPELTLPIIKPNRDYFCQYCDKVYKSASKRKAHILKNHPGAELPPSIRKLRPAGPGEPDPMLSTHTQLTGTIATPPVCCPHCSKQYSSKTKMVQHIRKKHPEFAQLSNTIHTPLTTAVISATPAVLTTDSATGETVVTTDLLTQAMTELSQTLTTDYRTPQGDYQRIQYIPVSQSASGLQQPQHIQLQVVQVASATSPHQSQQSTVDVGQLHDPQPYPQHAIQVQHIQVSGQPLSPSAQQAQQGLSPSHIQGSSSTQGQALQQQQQQQQNSSVQHTYLPSAWNSFRGYSSEIQMMTLPPGQFVITDSGVATPVTTGQVKAVTSGHYVLSESQSELEEKQTSALSGGVQVEPPAHSDSLDPQTNSQQQTTQYIITTTTNGNGSSEVHITKP | 0.3409
